# Laboratory results: US6512097
# Where two headings read alike, the source gives them in different places.
# What was measured:
# [1] = target: T1, c-erbB-2 expressed on cells (SK-OV-3, SK-BR-3) (UniProt P04626 23-1255, limits assumed); assay: Scatchard after radioiodination, SK-OV cells
# T1 construct: whole, on cells; also called native c-erbB-2 expressed on cells; c-erbB-2 on SK-OV-3 cells
# Protocol: (§1) All assays were performed in triplicate. Briefly, […] of radioiodinated sFv was added to 5×10^6 SK-OV cells in the presence of increasing concentrations of unlabeled sFv from the same preparation. After a 30 minute incubation at 20° C., the samples were washed with PBS at 4° C. and centrifuged at 500 g. The amount of labeled sFv bound to the cells was determined by counting the pellets in a gamma counter and the K_a, and K_d were calculated using the EBDA program (V 2.0, G. A. McPherson, 1983). The K_d of all the other isolated sFv were determined using surface plasmon resonance in a BIAcore (Pharmacia). In a BIAcore flow cell, approximately 1400 resonance units (RU) of c-erbB-2 ECD (25 μg/ml in 10 mM sodium acetate, pH 4.5) was coupled to a CM5 sensor chip (Johnsson et al. (1991), supra). Association and dissociation-rates were measured under continuous flow of […] using a concentration range from 50 to 800 nM. Rate constant $kon$ was determined from a plot of (1(dR/dt))/t vs concentration (Karlsson et al. (1991), supra). Rate constant $Hoff$ was determined from the dissociation part of the sensorgram at the highest concentration of sFv analyzed.
# (§2) These clones were purified by IMAC after subcloning into PUC119SFI/NotmycHis, and the affinity determined by Scatchard analysis.
# [2] = target: T2, c-erbB-2 ECD with a Ser-Gly-His6 C-terminal fusion (UniProt P04626 23-652); assay: competition ELISA, sFv preincubated with soluble c-erbB-2 (0 to 100 nM)
# T2 construct: extracellular domain; Expressed from CHO cells, IMAC purified; coupled to a CM5 chip, coated on plates, or biotinylated with NHS-LC-biotin; also called c-erbB-2 extracellular domain; biotinylated c-erbB-2 ECD
# Protocol: Meth. 77: 305–319). Immunolon 4 ELISA plates (Dynatech) were coated with avidin in PBS (10 μg/ml) at 4° C. overnight. Biotinylated c-erbB-2 ECD (5 μg/ml) was added to the wells and incubated for 30 min at room temperature. Bacterial supernatant containing sFv was incubated with varying concentrations of c-erbB-2 (0 to 100 nM) at 4° C. for 1 h. The amount of free sFv was then determined by transferring 100 μl of each mixture into the wells of the previously prepared ELISA plate and incubating for 1 h at 4° C. Binding of sFv was detected as under ELISA screening and the IC50 calculated as described (Friguet et al. (1985), supra)
# as §2
# [3] = target: T2, c-erbB-2 ECD with a Ser-Gly-His6 …; assay: SPR BIAcore
# [4] = target: T2, c-erbB-2 ECD with a Ser-Gly-His6 …; assay: SPR BIAcore; remark: listed apart in the source
# Protocol: as §1
# [5] = target: T2, c-erbB-2 ECD with a Ser-Gly-His6 …; assay: SPR BIAcore; remark: listed apart in the source
# Protocol: as §1
# [6] = target: T2, c-erbB-2 ECD with a Ser-Gly-His6 …; assay: SPR BIAcore, unpurified sFv
# [7] = target: T2, c-erbB-2 ECD with a Ser-Gly-His6 …; assay: SPR BIAcore (Kd ND, expression too low)
# [8] = target: T2, c-erbB-2 ECD with a Ser-Gly-His6 …; assay: SPR BIAcore; remark: listed apart in the source
# [9] = target: T2, c-erbB-2 ECD with a Ser-Gly-His6 …; assay: SPR BIAcore; remark: listed apart in the source
# [10] = target: T1, c-erbB-2 expressed on cells (SK-OV-3, …); assay: Scatchard on SK-OV-3 cells
# Protocol: (§3) All assays were performed in triplicate. […] The amount of labeled sFv bound to the cells was determined by counting the pellets in a gamma counter and the K_a, and K_d were calculated using the EBDA program (V 2.0, G. A. McPherson, 1983).
# [11] = target: T1, c-erbB-2 expressed on cells (SK-OV-3, …); assay: Scatchard on SK-OV-3 cells; remark: listed apart in the source
# Protocol: as §3
binder,measurement,setting,value
"C6VLB (scFv, Light chain shuffled; mixture of monomer and dimer by gel filtration) scFv: QVQLLQSGAELKKPGESLKISCKGSGYSFTSYWIAWVRQMPGKGLEYMGLIYPGDSDTKYSPSFQGQVTISVDKSVSTAYLQWSSLKPSDSAVYFCARHDVGYCSSSNCAKWPEYFQHWGQGTLVTVSSGGGGSGGGGSGGGGSQSVLTQPPSVSAAPGQKVTISCSGSSSNIGNNYVSWYQQLPGTAPKLLIYSDNQRPSGVPDRFSGSKSGTSASLAISGLRSEDEADYYCAAWDDSLSGHWVFGGGTKLTVLG",Kd,[1],30 nM
same,IC50,[2],10 nM
"C6L1 sFv (scFv, Light chain shuffled: C6.5 VH with new VL; also called C6L1 (light chain shuffle)) scFv: QVQLLQSGAELKKPGESLKISCKGSGYSFTSYWIAWVRQMPGKGLEYMGLIYPGDSDTKYSPSFQGQVTISVDKSVSTAYLQWSSLKPSDSAVYFCARHDVGYCSSSNCAKWPEYFQHWGQGTLVTVSSGGGGSGGGGSGGGGSQSVLTQPPSVSGAPGQWVTISCSGSSSNIGNNYVSWYQQLPGTAPKLLIYDNNKRPSGVPDRFSGSQSGTSASLAISGLRSEDEADYYCAAWDDSLSGWVFGGGTKLTVLG",Kd,[3],2.5 nM
same,fold higher affinity than parental,[3],6 fold
same,Kd,[4],2.6 nM
same,koff,[4],0.002 s⁻¹
same,kon,[4],780000 M⁻¹ s⁻¹
same,Kd,[5],2.6 nM
C6H1L1 (scFv) QVQLVESGAEVKKPRESLKISCKGSGYSFTSYEIAWVRQMPGKGLEYMGLIYPGDSDTKYSPSFQGQVTISVDKSVSTAYLQWSSLKPSDTAMYYCARHDVGYCSSSNCAKWPEYFQHWGQGTLVTVSSGGGGSGGGGSGGGGSQSVLTQPPSVSGAPGQWVTISCSGSSSNIGNNYVSWYQQLPGTAPKLLIYDNNKRPSGVPDRFSGSQSGTSASLAISGLRSEDEADYYCAAWDDSLSGWVFGGGTKLTVLG,Kd,[5],15 nM
C6H2L1 (scFv) scFv: QVQLVQSGAEVKKPRESLKISCKGSGYSFTSYWIAWVRQMPGKGLEYMGLIYPADSKTIYSPSFQGQVTISVDKSVSTAYLQWSSLKTSDTAMYYCARHDVGYCSSSNCAKWPEYFQHWGQGTLVTVSSGGGGSGGGGSGGGGSQSVLTQPPSVSGAPGQWVTISCSGSSSNIGNNYVSWYQQLPGTAPKLLIYDNNKRPSGVPDRFSGSQSGTSASLAISGLRSEDEADYYCAAWDDSLSGWVFGGGTKLTVLG,Kd,[5],6 nM
"C6ML3-A2 (scFv, C6ML3-9 sFv, VH CDR3 library A clone; unpurified in the koff screen; also called mutant sFv with the conservative replacement of Y99F) scFv: QVQLLQSGAELKKPGESLKISCKGSGYSFTSYWIAWVRQMPGKGLEYMGLIYPGDSDTKYSPSFQGQVTISVDKSVSTAYLQWSSLKPSDSAVYFCARHDVGFCSSSNCAKWPEYFQHWGQGTLVTVSSGGGGSGGGGSGGGGSQSVLTQPPSVSAAPGQKVTISCSGSSSNIGNNYVSWYQQLPGTAPKLLIYGHTNRPAGVPDRFSGSKSGTSASLAISGFRSEDEADYYCASWDYTLSGWVFGGGTKLTVLG",fold lower apparent koff than wt,[6],2.5 fold
"C6MH3-D7 (scFv, C6ML3-9 sFv, VH CDR3 library D mutant; expression too low for a purified Kd) scFv: QVQLLQSGAELKKPGESLKISCKGSGYSFTSYWIAWVRQMPGKGLEYMGLIYPGDSDTKYSPSFQGQVTISVDKSVSTAYLQWSSLKPSDSAVYFCARHDVGYCSSSNCAKWPEWQDPWGQGTLVTVSSGGGGSGGGGSGGGGSQSVLTQPPSVSAAPGQKVTISCSGSSSNIGNNYVSWYQQLPGTAPKLLIYGHTNRPAGVPDRFSGSKSGTSASLAISGFRSEDEADYYCASWDYTLSGWVFGGGTKLTVLG",koff,[7],0.00031 s⁻¹
C6H1 (scFv) QVQLVESGAEVKKPRESLKISCKGSGYSFTSYEIAWVRQMPGKGLEYMGLIYPGDSDTKYSPSFQGQVTISVDKSVSTAYLQWSSLKPSDTAMYYCARHDVGYCSSSNCAKWPEYFQHWGQGTLVTVSSGGGGSGGGGSGGGGSQSVLTQPPSVSAAPGQKVTISCSGSSSNIGNNYVSWYQQLPGTAPKLLIYGHTNRPAGVPDRFSGSKSGTSASLAISGFRSEDEADYYCAAWDDSLSGWVFGGGTKLTVLG,fold higher affinity than C6.5,[3],3 fold
same,Kd,[5],5.9 nM
"C6H2 (scFv, Heavy chain shuffled) scFv: QVQLVQSGAEVKKPRESLKISCKGSGYSFTSYWIAWVRQMPGKGLEYMGLIYPADSKTIYSPSFQGQVTISVDKSVSTAYLQWSSLKTSDTAMYYCARHDVGYCSSSNCAKWPEYFQHWGQGTLVTVSSGGGGSGGGGSGGGGSQSVLTQPPSVSAAPGQKVTISCSGSSSNIGNNYVSWYQQLPGTAPKLLIYGHTNRPAGVPDRFSGSKSGTSASLAISGFRSEDEADYYCAAWDDSLSGWVFGGGTKLTVLG",fold higher affinity than C6.5,[3],5 fold
same,Kd,[5],3.1 nM
"C6VLD (scFv, Radioiodinated for the Scatchard assay; the label is not carried in the letters., Light chain shuffled; mixture of monomer and dimer by gel filtration) scFv: QVQLLQSGAELKKPGESLKISCKGSGYSFTSYWIAWVRQMPGKGLEYMGLIYPGDSDTKYSPSFQGQVTISVDKSVSTAYLQWSSLKPSDSAVYFCARHDVGYCSSSNCAKWPEYFQHWGQGTLVTVSSGGGGSGGGGSGGGGSQSVLTQPPSVSAAPGQKVTISCSGTNSNIGNNYVSWYQQLPGTAPKLLIYTNDQRPSGVPDRFSGSKSGTSASLAISGLQSEDEADYYCAAWDDSLNGWMFGGGTKLTVLG",Kd,[1],26 nM
same,IC50,[2],5.8 nM
"741F8 sFv (scFv, V domains shown) VH: EIQLVQSGPELKKPGETVKISCKASGYTFTNYGMNWVKQAPGKGLKWMGWINTNTGEPTYAEEFKGRFAFSLETSASTAYLQINNLKNEDTATYFCGRQFITYGGFANWGQGTLVTVSA VL: DIVMTQSPKFMSTSVGDRVSISCKASQDVSTAVAWYQQKPGQSPKLLIYWTSTRHTGVPDRFTGSGSGTDYTLTISSVQAEDLALHYCQQHYRVPYTFGGGTKLEIK",Kd,[8],26 nM
same,koff,[8],0.0064 s⁻¹
same,kon,[8],240000 M⁻¹ s⁻¹
same,Kd,[9],26 nM
same,koff,[9],0.0064 s⁻¹
same,kon,[9],240000 M⁻¹ s⁻¹
same,Kd,[10],54 nM
same,Kd,[11],54 nM
"C6VLF (scFv, Radioiodinated for the Scatchard assay; the label is not carried in the letters., Light chain shuffled; mixture of monomer and dimer by gel filtration) scFv: QVQLLQSGAELKKPGESLKISCKGSGYSFTSYWIAWVRQMPGKGLEYMGLIYPGDSDTKYSPSFQGQVTISVDKSVSTAYLQWSSLKPSDSAVYFCARHDVGYCSSSNCAKWPEYFQHWGQGTLVTVSSGGGGSGGGGSGGGGSQSVLTQPPSMSAAPGQKVTISCSGSSSNIGNNYVSWYQQFPGTAPKLLIHDNNKRPSGIPDRISGSKSGTSASLAISGLQSDDEADYYCAAWDDSLNGWVFGGGTKLTVLG",Kd,[1],79 nM
same,IC50,[2],7.5 nM
"C6VLE (scFv, Radioiodinated for the Scatchard assay; the label is not carried in the letters., Light chain shuffled; mixture of monomer and dimer by gel filtration) scFv: QVQLLQSGAELKKPGESLKISCKGSGYSFTSYWIAWVRQMPGKGLEYMGLIYPGDSDTKYSPSFQGQVTISVDKSVSTAYLQWSSLKPSDSAVYFCARHDVGYCSSSNCAKWPEYFQHWGQGTLVTVSSGGGGSGGGGSGGGGSQSVLTQPPSVSAAAGQKVTISCSGSSSSIGRNYVSWNQQLPGTAPKLLIWRNNQRPSGVPDRFSGSKSGTSASLAISGVRSEDEADYYCASWDNSLSGWVFGGGTKLTVLG",Kd,[1],71 nM
same,IC50,[2],2.8 nM
